From patent US20150368327A1 (YOKOHAMA CITY UNIVERSITY, published 2015)

Columns and labels:
[1] = target: T1, mouse Sema 3A protein (mouse, UniProt O08665 21-772, limits assumed); experiment: antigen solid phase ELISA: coated mouse Sema 3A (2.5 µg/mL), anti-mouse IgG2A-HRP, OD450
T1 construct: Produced from mouse Sema 3A protein expressing cells; also called Mouse Sema 3A antigen
T1 sequence (looked up): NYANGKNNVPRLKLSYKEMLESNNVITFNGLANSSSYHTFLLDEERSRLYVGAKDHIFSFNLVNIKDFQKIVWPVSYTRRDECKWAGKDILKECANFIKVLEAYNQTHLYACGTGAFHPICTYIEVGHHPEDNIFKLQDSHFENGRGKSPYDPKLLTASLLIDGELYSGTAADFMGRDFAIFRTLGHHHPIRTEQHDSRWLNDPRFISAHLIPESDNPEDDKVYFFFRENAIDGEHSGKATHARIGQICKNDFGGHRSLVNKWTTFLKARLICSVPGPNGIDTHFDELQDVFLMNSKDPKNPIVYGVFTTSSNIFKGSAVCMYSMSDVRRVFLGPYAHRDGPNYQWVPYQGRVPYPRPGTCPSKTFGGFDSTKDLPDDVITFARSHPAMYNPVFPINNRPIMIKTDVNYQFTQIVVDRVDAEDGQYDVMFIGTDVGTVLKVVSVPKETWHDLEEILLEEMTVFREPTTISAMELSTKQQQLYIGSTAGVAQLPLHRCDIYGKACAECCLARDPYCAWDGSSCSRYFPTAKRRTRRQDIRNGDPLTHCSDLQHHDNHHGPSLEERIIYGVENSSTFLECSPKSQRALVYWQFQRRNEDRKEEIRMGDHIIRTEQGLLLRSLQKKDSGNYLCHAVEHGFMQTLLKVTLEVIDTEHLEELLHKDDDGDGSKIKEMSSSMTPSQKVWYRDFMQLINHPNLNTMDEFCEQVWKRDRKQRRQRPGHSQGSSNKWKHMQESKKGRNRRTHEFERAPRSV
Protocol: (§1) The antigen specificity of the purified antibody was measured by ELISA with PBS buffer. 2.5 μg/mL of antigen was dispensed to a 96 well Maxi Sorp Plate (Nunc) and reacted overnight at 4° C. to coat the plate with an antigen (mouse Sema 3A protein). Ovalbumin, rabbit IgG and skim milk were immobilized in the plate as negative controls in similar manner in order to examine specificity of antibodies. The next day, the plate was washed three times with 200 μL/well of washing solution (PBS containing 0.05% Tween 20), to which was added 200 μL/well of blocking solution (PBS containing 0.5% skim milk) and the mixture was reacted for 30 minutes. The plate was washed three times with 200 μL/well of washing solution, to which was added 100 μL of culture supernatant containing antibody and the mixture was reacted for one hour. The plate was washed five times with 200 μL/well of washing solution, to which was added 100 μL/well of diluent in which anti-mouse IgG2A goat antibody labeled with horseradish peroxidase (HRP) (Bethyl Laboratories, Inc.) was diluted 2000 times with PBS buffer and the mixture was reacted for one hour. […] The absorbance was measured at 450 nm using μQuantBiomolecular Spectrometer (Bio Tek Instruments, Inc.) Results are shown in FIG. 2.

[2] = target: T1, mouse Sema 3A protein; experiment: competitive ELISA on plate-coated mouse Sema 3A; competitor biotin-labelled avian-mouse chimeric antibody (clone No. 4-2) at 60 ng/mL
Protocol: The obtained clone No. 4-2-derived avian-mouse chimeric antibody in Example 1, the obtained humanized antibodies in Example 2 (Humanized-1 and Humanized-2) and avian-human chimeric antibody were subjected to competitive ELISA to evaluate affinity to the antigen. CL18M (+) avian-mouse chimeric antibody, which served as a negative control, was also measured for affinity to the antigen. Particular measurement conditions were as follows.
Firstly, 2.5 μg/mL of antigen (mouse and human Sema 3A protein) was dispensed into a 384 Well MaxiSorp Plate (Nunc) and reacted overnight at 4° C. in order to coat the plate with the antigen. The next day, the plate was washed three times with 50 μL/well of washing solution (PBS containing 0.05% Tween 20), to which was added 25 μL/well of blocking solution (PBS containing 1% bovine serum albumin) and the mixture was reacted for 30 minutes. Each of humanized antibodies (Humanized-1 and Humanized-2), avian-human chimeric antibody and avian-mouse chimeric antibody was subjected to serial doubling dilution, to which was mixed anti-Sema 3A avian-mouse chimeric antibody labeled with biotin to the final concentration of 60 ng/mL, and the mixture was reacted with the antigen solid phase plate which was washed three times with 50 μL/well of washing solution for one hour. The plate was washed five times with 50 μL/well of washing solution, to which was added 20 μL/well of diluent in which streptavidin labeled with horseradish peroxidase (HRP) (Thermo Fisher Scientific K.K.) was diluted 10000 times with PBS buffer and the mixture was reacted for 30 minutes. The plate was washed five times with 50 μL/well of washing solution, to which was added 20 μL/well of TMB+(Dako) and the mixture was chromogenically reacted for 20 minutes. Subsequently, to the each well was added 20 μL, of 1M sulfuric acid to quench the reaction. The absorbance was measured at 450 nm using Infinite M1000 (Tecan Trading AG).

[3] = target: T2, ovalbumin (OVA) (UniProt P01012 2-386); experiment: antigen solid phase ELISA: coated ovalbumin (negative control), anti-mouse IgG2A-HRP, OD450
T2 sequence (looked up): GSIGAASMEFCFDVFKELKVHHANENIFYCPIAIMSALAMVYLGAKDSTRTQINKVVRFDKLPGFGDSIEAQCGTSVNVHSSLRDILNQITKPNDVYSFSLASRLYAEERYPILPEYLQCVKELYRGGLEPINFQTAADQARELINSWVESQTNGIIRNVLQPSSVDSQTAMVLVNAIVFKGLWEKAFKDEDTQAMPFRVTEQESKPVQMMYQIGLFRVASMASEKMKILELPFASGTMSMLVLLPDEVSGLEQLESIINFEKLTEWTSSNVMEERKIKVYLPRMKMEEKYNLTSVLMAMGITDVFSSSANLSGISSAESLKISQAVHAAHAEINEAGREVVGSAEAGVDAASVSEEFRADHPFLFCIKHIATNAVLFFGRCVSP
Protocol: as §1

EC50 (read off the curve) [1]: ~0.01 µg/mL
IC50 [2]: 0.147 µg/mL
binding result [3]: no binding (tested: 100 ng/µL)
B1: Anti-Sema 3A avian-mouse chimeric antibody (clone No. 4-2-derived) (antibody, mouse IgG2a)
heavy: AVTLDESGGGLQTPGGALSLVCKASGFTFSSYPMGWVRQAPGKGLEWVAGIDDDGDSDTRYAPAVKGRATISRDNGQSTVRLQLNNLRAEDTGTYYCAKHTGIGANSAGSIDAWGHGTEVIVSSAKTTAPSVYPLAPVCGDTTGSSVTLGCLVKGYFPEPVTLTWNSGSLSSGVHTFPAVLQSDLYTLSSSVTVTSSTWPSQSITCNVAHPASSTKVDKKIEPRGPTIKPCPPCKCPAPNLLGGPSVFIFPPKIKDVLMISLSPIVTCVVVDVSEDDPDVQISWFVNNVEVHTAQTQTHREDYNSTLRVVSALPIQHQDWMSGKEFKCKVNNKDLPAPIERTISKPKGSVRAPQVYVLPPPEEEMTKKQVTLTCMVTDFMPEDIYVEWTNNGKTELNYKNTEPVLDSDGSYFMYSKLRVEKKNWVERNSYSCSVVHEGLHNHHTTKSFSRTPGK
light: ALTQPASVSANLGGTVKITCSGGGSYTGSYYYGWYQQKSPGSALVTMIYYNNKRPSDIPSRFSGSLSGSTNTLTITGVRADDEAVYFCGSADNSGDAFGAGTTLTVLGQPKSSPSVTLFPPSSEELETNKATLVCTITDFYPGVVTVDWKVDGTPVTQGMETTQPSKQSNNKYMASSYLTLTARAWERHSSYSCQVTHEGHTVEKSLSRADCS
notes: Avian variable regions of clone No. 4-2 with mouse IgG2a heavy and mouse lambda light constant regions; also called anti-Sema 3A avian-mouse chimeric antibody (IgG)
